Measured values published in US6500934.
Non-standard residues stand in square brackets, D forms with d. No end group written: not given here. Ahx = NCCCCCC(=O)O; βAla = NCCC(=O)O

Assays:
[1] = target: α-MSH receptor of wild type Xenopus laevis melanophores (Xenopus laevis); experiment: cell-based or functional assay
[2] = target: bombesin receptor expressed in transfected Xenopus laevis melanophores (plasmid pJG3.6BR); experiment: cell-based or functional assay

Question: For SYSMEHFRWGKPVGGG[Ahx]KKKKKKKKKKKKKKKKKKKKC[βAla] (ends and bridges not checked; also: disulfide-linked homodimer via Cys) [α-MSH dimer (disulfide-linked homodimer of …-GGG-εAhx-K(20)-C-βAla)], which EC50 (at t=30 min.) of pigment dispersion in wild type melanophores [1] is on record?
Answer: 72.5 nM

Question: What about the EC50 of pigment dispersion, fold lower than α-MSH monomer [1] of the same binder?
Answer: 5 fold

B1: Bombesin dimer (disulfide-linked homodimer of C-K(20)-εAhx-GGG-…) (peptide)
peptide: CKKKKKKKKKKKKKKKKKKKK[Ahx]GGGQQRLGNQWAVGHLM-NH2
modifications: ends and bridges not checked; also: disulfide-linked homodimer via N-terminal Cys
Question: What does the source list for B1?
Answer: EC50 (t=30 min) of pigment dispersion in melanophores transfected with the bombesin receptor [2]: 23.4 nM; EC50 of pigment dispersion, fold lower than bombesin monomer [2]: 5 fold

Question: For MP[dF]R[dW]FKPVGGG[Ahx]KKKKKKKKKKKKKKKKKKKK[βAla] [α-MSH-ANT monomer (MPdFRdWFKPV-GGGεAhx-K(20)-βAla)], which IC50 of inhibition of α-MSH (5 nM) mediated pigment dispersion in wild type melanophores [1] is on record?
Answer: 120 nM
